This note sets out measurements from US9482663.

The test concerns the target Anti-CRP antibodies (polyclonal). In words: SPR (Spreeta chip), anti-CRP antibodies injected over OM layer with Z-domain on gold.

Regarding “Z-domain of protein A autodisplayed on the E. coli outer membrane as a fusion protein of AIDA-I (from UniProt P38507 212-269; Q03155 840-1286)”, the SPR signal amounted to 1.1 A.U.
